Laboratory results published in PMC11878792.

Biological target: wt human lysyl-tRNA synthetase (h-LysRS, cytosolic) (human) (UniProt Q15046)
Test: EMSA
Conditions: 1 mM Mg2+, Kd values printed only in Fig. 4C, EMSA: 20 mM HEPES pH 7.4, 60 mM NaCl, 10 mM KCl, 1 mM MgCl2, 400 uM DTT, 8% glycerol, room temperature 30 min, 37.5 nM tRNA, 0-5 uM LysRS, Hill fit, SYBR Gold …

Sequence of wt human lysyl-tRNA synthetase (h-LysRS, cytosolic) (human) (Q15046 whole entry): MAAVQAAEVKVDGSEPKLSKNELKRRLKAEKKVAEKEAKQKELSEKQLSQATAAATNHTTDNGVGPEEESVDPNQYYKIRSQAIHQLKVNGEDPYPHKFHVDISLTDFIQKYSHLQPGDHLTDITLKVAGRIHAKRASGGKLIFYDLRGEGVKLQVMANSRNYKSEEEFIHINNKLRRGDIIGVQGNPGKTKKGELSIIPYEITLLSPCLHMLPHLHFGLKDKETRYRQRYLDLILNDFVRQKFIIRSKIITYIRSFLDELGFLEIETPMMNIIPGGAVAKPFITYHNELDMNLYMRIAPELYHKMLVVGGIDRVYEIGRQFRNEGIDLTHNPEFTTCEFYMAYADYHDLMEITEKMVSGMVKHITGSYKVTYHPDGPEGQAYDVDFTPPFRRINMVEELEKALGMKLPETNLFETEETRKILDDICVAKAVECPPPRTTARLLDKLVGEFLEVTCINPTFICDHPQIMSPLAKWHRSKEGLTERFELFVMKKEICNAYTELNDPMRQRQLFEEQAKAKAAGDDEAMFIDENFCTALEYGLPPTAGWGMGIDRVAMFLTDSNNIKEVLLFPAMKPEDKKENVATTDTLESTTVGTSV

IVT unmodified tRNALys3
binding signal (scale: fold lower affinity than modified tRNALys3): 2.5

cellular fully modified tRNALys3
binding signal (fold higher affinity than IVT tRNALys3) (native modifications, named: m2G10, D20, S34 (mcm5s2U), R37 (ms2t6A), D47, psi55, 9 types, 14 modified nucleotides modeled): 2.5
